Source: PMC7589614
Where two headings read alike, the source gives them in different places.

What was measured:
[1] = biological target: AbnA-D2 (D2), his-tagged arabinase family protein (Geobacillus stearothermophilus T-6) (UniProt B3EYN2); test: porous silicon RIFTS (EOT) biosensor; settings: 5'-amino; Selection buffers listed (assay buffer and temperature not stated in material): AGR2 137 mM NaCl, 20 mM KCl, 10 mM Na2HPO4, 2 mM KH2PO4 pH 7.4; 6H7 50 mM …
[2] = biological target: AbnA-D2 (D2), his-tagged arabinase family protein (Geobacillus stearothermophilus T-6) (UniProt B3EYN2); settings: 5'-amino; Selection buffers listed (assay buffer and temperature not stated in material): AGR2 137 mM NaCl, 20 mM KCl, 10 mM Na2HPO4, 2 mM KH2PO4 pH 7.4; 6H7 50 mM …; cited from earlier work

Sequence: GCTATGGGTGGTCTGGTTGGGATTGGCCCCGGGAGCTGGC [anti-his tag aptamer 6H7]
- Kd [1]: 29 µM
- Kd [2]: 4.6 µM
